The source of these data is US20080206243A1 (Genentech, published 2008).

In test [1] the target is T1, KDR (UniProt P35968 20-764, limits assumed).
T1 construct: The receptor construct used in the RIA is not described; also called KDR receptor; VEGFR-2
Briefly: soluble radio-immuno receptor-binding assay (RIA).

The target in test [2] is T1, KDR. Briefly: soluble radio-immuno receptor-binding assay (RIA); target KDR.
The target in a further test is T2, Flt-1 (UniProt P17948 27-758, limits assumed).
T2 construct: The receptor construct used in the RIA is not described; also called Flt-1 receptor; VEGFR-1
As to the kind of experiment: soluble radio-immuno receptor-binding assay (RIA); target Flt-1.

T1 sequence (P35968 20-764 limits assumed): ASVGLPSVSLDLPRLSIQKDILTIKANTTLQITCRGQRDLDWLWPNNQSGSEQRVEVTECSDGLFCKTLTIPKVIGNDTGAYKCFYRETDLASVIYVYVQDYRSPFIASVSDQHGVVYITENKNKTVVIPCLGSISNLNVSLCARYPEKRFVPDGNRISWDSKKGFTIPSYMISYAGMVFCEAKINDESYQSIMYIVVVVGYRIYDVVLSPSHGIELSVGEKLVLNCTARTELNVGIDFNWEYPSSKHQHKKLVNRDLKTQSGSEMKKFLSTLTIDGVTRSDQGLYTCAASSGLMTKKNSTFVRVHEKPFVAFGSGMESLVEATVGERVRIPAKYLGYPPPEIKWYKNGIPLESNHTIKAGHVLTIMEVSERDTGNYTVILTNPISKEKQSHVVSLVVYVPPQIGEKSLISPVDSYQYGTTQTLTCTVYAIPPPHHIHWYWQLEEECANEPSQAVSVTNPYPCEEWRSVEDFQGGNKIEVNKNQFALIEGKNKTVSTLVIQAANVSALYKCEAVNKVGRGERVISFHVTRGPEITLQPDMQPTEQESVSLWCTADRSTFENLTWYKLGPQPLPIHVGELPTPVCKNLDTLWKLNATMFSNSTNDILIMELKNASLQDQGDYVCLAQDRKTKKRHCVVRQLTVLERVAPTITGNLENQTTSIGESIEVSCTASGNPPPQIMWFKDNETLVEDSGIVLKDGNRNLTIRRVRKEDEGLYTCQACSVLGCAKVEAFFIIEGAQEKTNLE
T2 sequence (P17948 27-758 limits assumed): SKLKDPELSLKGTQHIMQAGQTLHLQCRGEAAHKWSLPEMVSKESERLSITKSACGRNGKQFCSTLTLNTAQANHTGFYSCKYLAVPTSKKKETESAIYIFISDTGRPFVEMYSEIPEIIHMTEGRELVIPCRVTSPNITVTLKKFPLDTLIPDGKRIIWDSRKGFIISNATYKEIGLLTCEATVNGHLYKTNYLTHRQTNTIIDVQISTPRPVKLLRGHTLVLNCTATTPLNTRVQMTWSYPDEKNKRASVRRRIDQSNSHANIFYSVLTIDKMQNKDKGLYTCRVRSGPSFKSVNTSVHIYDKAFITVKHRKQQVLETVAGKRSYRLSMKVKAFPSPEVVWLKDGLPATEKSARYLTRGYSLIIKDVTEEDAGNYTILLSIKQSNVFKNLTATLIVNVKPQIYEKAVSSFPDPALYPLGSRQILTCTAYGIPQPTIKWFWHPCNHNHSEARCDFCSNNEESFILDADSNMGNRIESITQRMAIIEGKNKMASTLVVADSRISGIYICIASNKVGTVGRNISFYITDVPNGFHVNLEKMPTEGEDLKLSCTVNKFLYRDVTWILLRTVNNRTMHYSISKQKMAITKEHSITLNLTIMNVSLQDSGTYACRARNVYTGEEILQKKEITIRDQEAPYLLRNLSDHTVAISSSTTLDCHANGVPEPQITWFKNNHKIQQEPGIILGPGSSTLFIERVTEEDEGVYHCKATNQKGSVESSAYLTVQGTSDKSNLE

“I43A/I46A/Q79A/I83A Flt-sel variant (from UniProt P15692 27-135) (ligand)”: the fold reduction of KDR-binding affinity against native VEGF with KDR [1] was more than 470 fold.

B1: native VEGF(8-109) (ligand, human, UniProt P15692 214-315, looked up)
chain: GQNHHEVVKFMDVYQRSYCHPIETLVDIFQEYPDEIEYIFKPSCVPLMRCGGCCNDEGLECVPTEESNITMQIMRIKPHQGQHIGEMSFLQHNKCECRPKKD
notes: range 8-109; Residues 8-109 are counted on the native (mature) 165-amino acid VEGF, not on the precursor with its signal peptide; the listing holds only primers; also called native protein
As usually defined, the Kd is a measure of binding affinity in units of concentration. A higher Kd goes with a looser complex. B1: the Kd is 0.5 nM in the test with KDR [2] and 0.4 nM in the test with Flt-1.
